# Test results as given in patent US20140030416A1.
# Columns and labels:
# Assay in all cases: cell-based or functional assay
# [1] = biological target: Trypsin-like protease (TL1) from Fusarium oxysporum (Fusarium oxysporum) (UniProt P35049)
# [2] = biological target: porcine trypsin (porcine) (UniProt P00761)
# bovine trypsin (bovine) = bovine trypsin (bovine) (UniProt P00760)
# UniProt P35049, sequence (P35049 25-248 limits assumed): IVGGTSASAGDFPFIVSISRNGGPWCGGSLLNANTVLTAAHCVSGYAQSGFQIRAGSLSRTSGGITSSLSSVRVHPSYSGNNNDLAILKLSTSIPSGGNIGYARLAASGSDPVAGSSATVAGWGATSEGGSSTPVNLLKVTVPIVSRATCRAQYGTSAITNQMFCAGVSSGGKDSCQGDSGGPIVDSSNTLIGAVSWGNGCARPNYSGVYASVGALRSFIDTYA
substance,measurement,setting,value
"Bowman-Birk inhibitor (Cat # T-9777, Sigma-Aldrich) (from UniProt P01055 40-110)",% residual activity at 0.00048 mg/ml Bowman-Birk inhibitor,[1],117%
same,% residual activity at 0.00097 mg/ml Bowman-Birk inhibitor,[1],111%
same,% residual activity at 0.00195 mg/ml Bowman-Birk inhibitor,[1],103%
same,% residual activity at 0.0039 mg/ml Bowman-Birk inhibitor,[1],109%
same,% residual activity at 0.0078 mg/ml Bowman-Birk inhibitor,[1],82%
same,% residual activity at 0.0156 mg/ml Bowman-Birk inhibitor,[1],61%
same,% residual activity at 0.0313 mg/ml Bowman-Birk inhibitor,[1],32%
same,% residual activity at 0.0625 mg/ml Bowman-Birk inhibitor,[1],13%
same,% residual activity at 0.125 mg/ml Bowman-Birk inhibitor,[1],5.8%
same,% residual activity at 0.25 mg/ml Bowman-Birk inhibitor,[1],2.2%
same,% residual activity at 0.5 mg/ml Bowman-Birk inhibitor,[1],0.8%
same,% residual activity at 0.00048 mg/ml Bowman-Birk inhibitor,[2],11%
same,% residual activity at 0.00097 mg/ml Bowman-Birk inhibitor,[2],9.4%
same,% residual activity at 0.00195 mg/ml Bowman-Birk inhibitor,[2],8.3%
same,% residual activity at 0.0039 mg/ml Bowman-Birk inhibitor,[2],6.2%
same,% residual activity at 0.0078 mg/ml Bowman-Birk inhibitor,[2],3.2%
same,% residual activity at 0.0156 mg/ml Bowman-Birk inhibitor,[2],2.2%
same,% residual activity at 0.0313 mg/ml Bowman-Birk inhibitor,[2],1%
same,% residual activity at 0.0625 mg/ml Bowman-Birk inhibitor,[2],6.4%
same,% residual activity at 0.125 mg/ml Bowman-Birk inhibitor,[2],0.2%
same,% residual activity at 0.25 mg/ml Bowman-Birk inhibitor,[2],0.1%
same,% residual activity at 0.5 mg/ml Bowman-Birk inhibitor,[2],0.1%
same,% residual activity at 0.00048 mg/ml Bowman-Birk inhibitor,bovine trypsin (bovine),6.9%
same,% residual activity at 0.00097 mg/ml Bowman-Birk inhibitor,bovine trypsin (bovine),5.3%
same,% residual activity at 0.00195 mg/ml Bowman-Birk inhibitor,bovine trypsin (bovine),0.1%
same,% residual activity at 0.0039 mg/ml Bowman-Birk inhibitor,bovine trypsin (bovine),-0.4%
same,% residual activity at 0.0078 mg/ml Bowman-Birk inhibitor,bovine trypsin (bovine),0%
same,% residual activity at 0.0156 mg/ml Bowman-Birk inhibitor,bovine trypsin (bovine),-1.5%
same,% residual activity at 0.0313 mg/ml Bowman-Birk inhibitor,bovine trypsin (bovine),0.1%
same,% residual activity at 0.0625 mg/ml Bowman-Birk inhibitor,bovine trypsin (bovine),0%
same,% residual activity at 0.125 mg/ml Bowman-Birk inhibitor,bovine trypsin (bovine),0%
same,% residual activity at 0.25 mg/ml Bowman-Birk inhibitor,bovine trypsin (bovine),0%
same,% residual activity at 0.5 mg/ml Bowman-Birk inhibitor,bovine trypsin (bovine),0%
